# Source: patent US20240116985A1 (published 2024)
# Starred links: 1 amine or outer side, 2 acyl side, 3 side chain; linkers in the order of their positions; H or OH if unused. Positions of bridges follow the written chain, without caps; N, C: chain ends. Non-standard residues stand in square brackets, D forms with d. Primed or numbered codes have the meaning given here. *: point of attachment. (Pfbn)GAbu = (S)-2-amino-4-((carboxymethyl)((perfluorophenyl)methyl)amino)butanoic acid, O=C([C@H](CCN(CC(=O)[*:3])Cc1c(F)c(F)c(F)c(F)c1F)N[*:1])[*:2]; PyrS2(3) = (S)-3-amino-1-((pent-4-en-1-yloxy)carbonyl)pyrrolidine-3-carboxylic acid, stapling residue, C=CCCCOC(=O)N1CC[C@@](N[*:1])(C(=O)[*:2])C1; PyrS2″ = (S)-3-amino-1-((pent-4-en-1-yloxy)carbonyl)pyrrolidine-3-carboxylic acid (stapling residue), C=CCCCOC(=O)N1CC[C@@](N[*:1])(C(=O)[*:2])C1; (Tfb)GAbu = (S)-2-amino-4-((carboxymethyl)(4,4,4-trifluorobutyl)amino)butanoic acid, O=C([C@H](CCN(CCCC(F)(F)F)CC(=O)[*:3])N[*:1])[*:2]; (Tfp)GAbu = (S)-2-amino-4-((carboxymethyl)(3,3,3-trifluoropropyl)amino)butanoic acid, O=C([C@H](CCN(CCC(F)(F)F)CC(=O)[*:3])N[*:1])[*:2]; B5(23) = 2-amino-2-(pent-4-en-1-yl)hept-6-enoic acid (2,2-bis(4-pentenyl)glycine), stitching residue, C=CCCCC(CCCC=C)(N[*:1])C(=O)[*:2]; B5(4) = 2,2-bis(4-pentenyl)glycine = 2-amino-2-(pent-4-en-1-yl)hept-6-enoic acid (stitching residue), C=CCCCC(CCCC=C)(N[*:1])C(=O)[*:2]; PyrS″ = (S)-1-((allyloxy)carbonyl)-3-aminopyrrolidine-3-carboxylic acid (stapling residue), C=CCOC(=O)N1CC[C@@](N[*:1])(C(=O)[*:2])C1; TfeGA = (S)-2-amino-3-((carboxymethyl)(2,2,2-trifluoroethyl)amino)propanoic acid, O=C([C@H](CN(CC(=O)[*:3])CC(F)(F)F)N[*:1])[*:2]; PyrS2 = (S)-3-amino-1-((pent-4-en-1-yloxy)carbonyl)pyrrolidine-3-carboxylic acid, C=CCCCOC(=O)N1CC[C@@](N[*:1])(C(=O)[*:2])C1; PyrS1 = (S)-3-amino-1-((but-3-en-1-yloxy)carbonyl)pyrrolidine-3-carboxylic acid, C=CCCOC(=O)N1CC[C@@](N[*:1])(C(=O)[*:2])C1; Az = 1-((allyloxy)carbonyl)-3-aminoazetidine-3-carboxylic acid (stapling residue), C=CCOC(=O)N1CC(N[*:1])(C(=O)[*:2])C1; (Bn)GAbu = (S)-2-amino-4-(benzyl(carboxymethyl)amino)butanoic acid, O=C([C@H](CCN(CC(=O)[*:3])Cc1ccccc1)N[*:1])[*:2]; PyrS = (S)-1-((allyloxy)carbonyl)-3-aminopyrrolidine-3-carboxylic acid, C=CCOC(=O)N1CC[C@@](N[*:1])(C(=O)[*:2])C1; B5(19) = 2-amino-2-(pent-4-en-1-yl)hept-6-enoic acid (bis(4-pentenyl)glycine), C=CCCCC(CCCC=C)(N[*:1])C(=O)[*:2]; HypEs5 = (2R,4S)-4-(pent-4-enoyloxy)pyrrolidine-2-carboxylic acid, C=CCCC(=O)O[C@H]1C[C@H](C(=O)[*:2])N([*:1])C1; (Et)GAbu = (S)-2-amino-4-((carboxymethyl)(ethyl)amino)butanoic acid, CCN(CC[C@H](N[*:1])C(=O)[*:2])CC(=O)[*:3]; GA = (S)-2-amino-3-((carboxymethyl)amino)propanoic acid, O=C([C@H](CNCC(=O)[*:3])N[*:1])[*:2]; Phe(4-tetrazol-5-yl) = N[C@@H](Cc1ccc(-c2nnn[nH]2)cc1)C(=O)O; Phe(2-Cl) = N[C@@H](Cc1ccccc1Cl)C(=O)O; Bta = N[C@@H](Cc1csc2ccccc12)C(=O)O; Lys(iPr) = CC(C)NCCCC[C@H](N)C(=O)O; αAllylPro = C=CC[C@@]1(C(=O)O)CCCN1; tBuAla = CC(C)(C)C[C@H](N)C(=O)O; 3Thi = N[C@@H](Cc1ccsc1)C(=O)O; Pfb = not defined here; Ms = CS(=O)(=O)*
# T1: B-cat-Halo (UniProt P35222 1-781)
# T1 sequence (looked up): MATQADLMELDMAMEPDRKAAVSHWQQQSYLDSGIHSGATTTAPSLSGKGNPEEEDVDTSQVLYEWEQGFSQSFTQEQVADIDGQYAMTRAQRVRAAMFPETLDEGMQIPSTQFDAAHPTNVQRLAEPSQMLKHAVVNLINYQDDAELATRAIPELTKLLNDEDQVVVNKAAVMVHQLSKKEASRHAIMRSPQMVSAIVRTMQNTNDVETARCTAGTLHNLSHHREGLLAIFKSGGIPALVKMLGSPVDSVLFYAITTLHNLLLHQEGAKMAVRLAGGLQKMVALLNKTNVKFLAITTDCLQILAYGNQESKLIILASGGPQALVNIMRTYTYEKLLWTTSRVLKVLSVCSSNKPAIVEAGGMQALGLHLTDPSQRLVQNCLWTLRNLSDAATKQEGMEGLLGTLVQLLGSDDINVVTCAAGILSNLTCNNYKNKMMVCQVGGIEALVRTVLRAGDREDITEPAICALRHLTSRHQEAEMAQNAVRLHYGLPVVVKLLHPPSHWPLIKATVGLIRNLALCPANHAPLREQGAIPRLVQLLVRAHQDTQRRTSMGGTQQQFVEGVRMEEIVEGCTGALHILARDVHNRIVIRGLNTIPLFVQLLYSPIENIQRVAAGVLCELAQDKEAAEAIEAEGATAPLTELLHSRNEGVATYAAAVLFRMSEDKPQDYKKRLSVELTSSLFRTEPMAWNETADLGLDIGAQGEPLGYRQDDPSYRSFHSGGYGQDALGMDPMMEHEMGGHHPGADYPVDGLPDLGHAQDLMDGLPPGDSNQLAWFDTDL
# T2: B-cat-Halo (beta-catenin HaloTag construct expressed in HEK293 cells) (UniProt P35222 1-781)
# T2 sequence (looked up): T1 sequence (looked up)
# T3: full-length beta-Catenin (Uniprot ID P35222) (Homo sapiens (Human), UniProt P35222 2-781)
# T3 construct: full-length beta-Catenin (Uniprot ID P35222); also called bCat; B-Catenin
# T3 sequence: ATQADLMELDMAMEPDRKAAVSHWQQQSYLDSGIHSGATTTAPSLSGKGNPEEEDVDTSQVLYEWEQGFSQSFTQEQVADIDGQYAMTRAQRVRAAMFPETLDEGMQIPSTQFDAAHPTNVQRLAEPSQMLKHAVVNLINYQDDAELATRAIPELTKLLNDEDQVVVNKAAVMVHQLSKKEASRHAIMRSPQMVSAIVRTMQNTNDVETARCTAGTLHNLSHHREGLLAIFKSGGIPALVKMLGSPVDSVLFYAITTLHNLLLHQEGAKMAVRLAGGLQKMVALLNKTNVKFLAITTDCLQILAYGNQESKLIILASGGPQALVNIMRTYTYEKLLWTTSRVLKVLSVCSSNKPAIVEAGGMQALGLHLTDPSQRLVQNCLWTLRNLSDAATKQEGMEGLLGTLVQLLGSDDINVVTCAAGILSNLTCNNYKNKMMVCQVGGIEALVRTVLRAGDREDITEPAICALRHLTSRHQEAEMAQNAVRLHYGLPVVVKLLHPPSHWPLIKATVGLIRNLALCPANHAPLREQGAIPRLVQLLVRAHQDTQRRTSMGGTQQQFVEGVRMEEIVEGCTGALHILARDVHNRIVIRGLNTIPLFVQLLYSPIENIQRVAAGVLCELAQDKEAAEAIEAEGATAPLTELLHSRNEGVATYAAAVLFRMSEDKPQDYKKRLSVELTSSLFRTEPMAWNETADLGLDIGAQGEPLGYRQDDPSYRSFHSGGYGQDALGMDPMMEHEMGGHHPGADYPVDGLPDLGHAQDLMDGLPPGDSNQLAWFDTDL
# B1: I-1571 (peptide)
# peptide: Ac-[αAllylPro]D[tBuAla][B5(23)]D[GA](Pfb)AAFN[PyrS2][Phe(2-Cl)][Bta]Q-NH2
# modifications: staple 1-4, 4-11; reading uncertain; also: printed as Ac-PL3-Asp-Npg-B5-Asp-[Pfb]GA-Ala-Ala-Phe-Asn-PyrS2-2C1F-BztA-Gln-NH2
# B2: I-1565 (peptide)
# peptide: Ac-[αAllylPro]D[tBuAla][B5(23)]NTAAFN[PyrS2][3Thi][Bta]Q-NH2
# modifications: staple 1-4, 4-11; not fully specified; printed as Ac-PL3-Asp-Npg-B5-Asn-Thr-Ala-Ala-Phe-Asn-PyrS2-3Thi-BztA-Gln-NH2
# B3: I-1574 (peptide)
# peptide: Ms-[HypEs5]D[tBuAla][B5(23)]DDAAFN[PyrS2][3Thi][Bta]Q-NH2
# modifications: staple 1-4, 4-11; not fully specified; printed as MeSO2-HypEs5-Asp-Npg-B5-Asp-Asp-Ala-Ala-Phe-Asn-PyrS2-3Thi-BztA-Gln-NH2
# B4: I-1567 (peptide)
# peptide: Ac-[αAllylPro]D[tBuAla][B5(23)]NQAAFN[PyrS2][3Thi][Bta]Q-NH2
# modifications: staple 1-4, 4-11; not fully specified; printed as Ac-PL3-Asp-Npg-B5-Asn-Gln-Ala-Ala-Phe-Asn-PyrS2-3Thi-BztA-Gln-NH2
# B5: I-1376 (peptide)
# peptide: Ac-[αAllylPro]DA[B5(4)]NT[Lys(iPr)]AFL[PyrS2″]F[Bta]Q-NH2
# modifications: staple 1-4, 4-11
# notes: also called Ac-PL3-Asp-Ala-B5-Asn-Thr-iPrLys-Ala-Phe-Leu-PyrS2-Phe-BztA-Gln-NH2
# B6: I-1377 (peptide)
# peptide: Ac-[αAllylPro]DA[B5(4)]NT[Lys(iPr)]AFL[PyrS2″]F[Bta]K-NH2
# modifications: staple 1-4, 4-11
# notes: also called Ac-PL3-Asp-Ala-B5-Asn-Thr-iPrLys-Ala-Phe-Leu-PyrS2-Phe-BztA-Lys-NH2
# B7: I-1378 (peptide)
# peptide: Ac-[αAllylPro]DA[B5(4)]NT[Lys(iPr)]AFL[PyrS2″]F[Bta]T-NH2
# modifications: staple 1-4, 4-11
# notes: also called Ac-PL3-Asp-Ala-B5-Asn-Thr-iPrLys-Ala-Phe-Leu-PyrS2-Phe-BztA-Thr-NH2
# Molecular target: T1, B-cat-Halo
# Experiment: cell-based or functional assay
row,Binder,NanoBRET Abs IC50 [µM]
1,"Ac-[αAllylPro]D[tBuAla][B5(23)]D[3TzF]AAFN[PyrS2(3)][3Thi][Bta]Q-NH2 (staple 1-4, 4-11) [I-1578]",> 20
2,"Ac-[αAllylPro]D[tBuAla][B5(23)]NTAAFN[PyrS2][3Thi][Bta]Q-NH2 (staple 1-4, 4-11; also: earlier-eluting HPLC staple isomer) [I-1564]",> 20
3,"Ac-[αAllylPro]D[tBuAla][B5(23)]NQAAFN[PyrS2][3Thi][Bta]Q-NH2 (staple 1-4, 4-11; also: earlier-eluting HPLC staple isomer) [I-1566]",> 20
4,"Ac-[αAllylPro]D[tBuAla][B5(23)]D[Phe(4-tetrazol-5-yl)]AAFN[PyrS2(3)][3Thi][Bta]Q-NH2 (staple 1-4, 4-11) [I-1579]",> 20
5,B1,11.7
6,"Ac-[αAllylPro]D[tBuAla][B5(23)]D[GA]AAFN[PyrS2][Phe(2-Cl)][Bta]Q-NH2 (staple 1-4, 4-11) [I-1572]",> 20
7,B2,> 20
8,"Ac-[αAllylPro]D[tBuAla][B5(23)]NNAAFL[PyrS2][3Thi][Bta]Q-NH2 (staple 1-4, 4-11) [I-1557]",> 20
9,"Ac-[HypEs5]D[tBuAla][B5(23)]DDAAFN[PyrS2][3Thi][Bta]Q-NH2 (staple 1-4, 4-11) [I-1573]",> 20
10,B3,> 20
11,B4,> 20

# Molecular target: T2, B-cat-Halo (beta-catenin HaloTag …)
# Experiment: cell-based or functional assay
row,Binder,NanoBRET Abs IC50 [µM]
1,"Ac-[αAllylPro]D[tBuAla][B5(4)]D[(Tfp)GAbu]AAFL[PyrS2″][3Thi][Bta]Q-NH2 (staple 1-4, 4-11) [I-1839]",14.6
2,"Ac-[αAllylPro]D[tBuAla][B5(4)]D[TfeGA]AAFL[PyrS2″][Phe(2-Cl)][Bta]Q-NH2 (staple 1-4, 4-11) [I-1833]",6.9
3,"Ac-[αAllylPro]D[tBuAla][B5(19)]DDAAFL[PyrS1][3Thi][Bta]Q-NH2 (staple 1-4, 4-11; also: staple olefins reduced to CH2-CH2) [I-1822]",> 20
4,"Ac-[αAllylPro]D[tBuAla][B5(19)]DDAAFN[PyrS][3Thi][Bta]Q-NH2 (staple 1-4, 4-11; also: staple olefins reduced to CH2-CH2) [I-1823]",> 20
5,"Ac-[αAllylPro]D[tBuAla][B5(19)]DDAAFL[PyrS][3Thi][Bta]Q-NH2 (staple 1-4, 4-11) [I-1818]",> 20
6,"Ac-[αAllylPro]D[tBuAla][B5(4)]DDAAFL[PyrS″][3Thi][Bta]Q-NH2 (staple 1-4, 4-11; also: staple -CH=CH- reduced to -CH2-CH2- in both staples) [I-1824]",> 20
7,"Ac-[αAllylPro]D[tBuAla][B5(4)]D[(Et)GAbu]AAFL[PyrS2″][3Thi][Bta]Q-NH2 (staple 1-4, 4-11) [I-1835]",31.9
8,"Ac-[αAllylPro]D[tBuAla][B5(4)]DDAAFL[Az][3Thi][Bta]Q-NH2 (staple 1-4, 4-11) [I-1828]",> 20
9,"Ac-[αAllylPro]D[tBuAla][B5(4)]D[(Bn)GAbu]AAFL[PyrS2″][3Thi][Bta]Q-NH2 (staple 1-4, 4-11) [I-1834]",18.8
10,"Ac-[αAllylPro]D[tBuAla][B5(19)]DDAAFN[PyrS1][3Thi][Bta]Q-NH2 (staple 1-4, 4-11; also: staple olefins reduced to CH2-CH2) [I-1821]",> 20
11,"Ac-[αAllylPro]D[tBuAla][B5(4)]D[(Pfbn)GAbu]AAFL[PyrS2″][3Thi][Bta]Q-NH2 (staple 1-4, 4-11) [I-1838]",7.9
12,"Ac-[αAllylPro]D[tBuAla][B5(4)]D[(Tfb)GAbu]AAFL[PyrS2″][3Thi][Bta]Q-NH2 (staple 1-4, 4-11) [I-1837]",18.5

# Molecular target: T3, full-length beta-Catenin (Uniprot ID …)
# Experiment: fluorescence polarization competition; full-length beta-catenin + 5FAM-TCF4 10-53 probe, peptide titrated
# Procedure: The plate was incubated protected from light for 60 minutes at 20° C. prior to read. Reads were performed on a CLARIOstar plate reader (BMG Labtech) in duplicate, and data were fitted to a 1:1 binding model with hill slope using an in-house script. All provided concentrations are final concentrations.
row,Binder,IC50 [µM]
1,B5,4.21
2,B6,1
3,B7,6.17
